The text below walks through data of patent publication WO2015050959A1 (dated 2015).

Experiment [1] concerns the target Wild type KIT expressed on cells (UniProt P10721 26-976, limits assumed). The experiment in a line: cell-based or functional assay.
The target of experiment [2] is T1, Soluble KITD4-5 fragment (amino acids 308-514) (human, UniProt P10721 308-514, glycosylated Asn320 (partial deglycosylation with endoglycosidase F1)).
T1 construct: range 308-514; Expressed in Sf9 insect cells with an N-terminal His-tag and a TEV site; also called KITm-5; KITm-s
The experiment in a line: SPR (Biacore T100, 25 C), KITD4-5 amine-coupled to a CM5 chip, Fab as analyte 0.12-10 nM, 1:1 Langmuir fit.

The target in experiment [3] is T1, Soluble KITD4-5 fragment (amino acids …). The experiment is described as follows: SPR (Biacore T100, 25 C), KITD4-5 amine-coupled to a CM5 chip, Fab as analyte, long dissociation time, 1:1 Langmuir fit.

Positions count from the first letter of the chain named.

B1: IgG 79D (antibody, V domains shown)
VH: EVQLVESGGGLVQPGGSLRLSCAASGFNISVYMMHWVRQAPGKGLEWVASIYPYSGYTYYADSVKGRFTISADTSKNTAYLQMNSLRAEDTAVYYCARYVYHALDYWGQGTLVTVSS
VL: DIQMTQSPSSLSASVGDRVTITCRASQRGLRNVAVAWYQQKPGKAPKLLIYSASSLYSGVPSRFSGSRSGTDFTLTISSLQPEDFATYYCQQWAVHSLITFGQGTKVEIKR
Regarding B1, in experiment [1], the “concentration at which KIT autophosphorylation was inhibited (NIH-3T3 cells expressing wt KIT, SCF stimulation)” value is 1 nM.

B2: Fab19 (Fab)
VH: B1 VH with V31S, M33S
light: DIQMTQSPSSLSASVGDRVTITCRASQSVSSAVAWYQQKPGKAPKLLIYSASSLYSGVPSRFSGSRSGTDFTLTISSLQPEDFATYYCQQWAVHSLITFGQGTKVEIKRTVAAPSVFIFPPSDSQLKSGTASVVCLLNNFYPREAKVQWKVDNALQSGNSQESVTEQDSKDSTYSLSSTLTLSKADYEKHKVYACEVTHQGLSSPVTKSFNRGECGGSDYKDDDDK
notes: Human synthetic Fab from phage library F, made in E. coli; Light chain carries a C-terminal Flag-tag; also called parental synthetic Fab; anti-D4 Fab
B2 gave a dissociation constant Kd in experiment [2] of 0.63 nM. Moreover, the “concentration at which KIT autophosphorylation was inhibited (NIH-3T3 cells expressing wt KIT, SCF stimulation)” value in experiment [1] was found to be 50 nM.

B3: Fab79D (Fab)
heavy: EVQLVESGGGLVQPGGSLRLSCAASGFNISVYMMHWVRQAPGKGLEWVASIYPYSGYTYYADSVKGRFTISADTSKNTAYLQMNSLRAEDTAVYYCARYVYHALDYWGQGTLVTVSSASTKGPSVFPLAPSSKSTSGGTAALGCLVKDYFPEPVTVSWNSGALTSGVHTFPAVLQSSGLYSLSSVVTVPSSSLGTQTYICNVNHKPSNTKVDKKVEPKSC
light: DIQMTQSPSSLSASVGDRVTITCRASQRGLRNVAVAWYQQKPGKAPKLLIYSASSLYSGVPSRFSGSRSGTDFTLTISSLQPEDFATYYCQQWAVHSLITFGQGTKVEIKRTVAAPSVFIFPPSDSQLKSGTASVVCLLNNFYPREAKVQWKVDNALQSGNSQESVTEQDSKDSTYSLSSTLTLSKADYEKHKVYACEVTHQGLSSPVTKSFNRGECGGSDYKDDDDK
notes: Made in E. coli; also called last generation Fab; KIT79D (Fab)
The molecule B3 showed a Kd in experiment [3] of 0.0064 nM. In other words, the picomolar range.
